Like-named read-outs stand apart in the source and are kept apart here. One block for each binder: values may come before it. Ends that are not written are not given here. * marks the point of attachment. Biotin = O=C1N[C@H]2[C@H](CS[C@H]2CCCCC(=O)*)N1
Key:
A-beta(12-28) peptide = target: T1, A-beta(12-28) peptide (human); assay: SPR on captured A-beta(12-28)
T1 construct: Bachem peptide captured on streptavidin chip; also called monomeric A-beta(12-28); central region
T1 peptide: Biotin-VHHQKLVFFAEDVGSNK
Procedure: (§1) After capturing, surfaces are blocked by injecting an excess (200 μg/ml) of d-biotin for 180 s at 5 μl/min. A reference surface is washed and blocked with d-biotin. HBS-EP+buffer is used as the running buffer and experiments are performed at 25° C. For off-rate screening, periplasmic extracts of VHHs are injected at a 10-fold dilution for 2 min at 45 μl/min and are allowed to dissociate for 10 min. […] Between different VHH samples, the surfaces are regenerated with regeneration buffer (50 mM NaOH) for 25 s at 45 μl/min followed by 10 s 6M GuHCl at 45 μl/min if regeneration is incomplete. […] Data are double referenced by subtraction of the curves on the reference channel and of a blank running buffer injection. Sensorgrams are evaluated by fitting a 1:1 dissociation model using the Biacore T100 Evaluation software v1.1.1.

[1] = target: T2, human A-beta(1-40) peptide, monomeric (BAM) (human, biotin at the C-terminus in capture ELISA, SPR and TR-FRET; not biotinylated where coated directly (Example 7)); assay: TR-FRET competition, labelled ABII60A10
T2 construct: synthetic peptide (Anaspec), TFA/HFIP treated to give monomer; also called monomeric A-beta

[2] = target: T2, human A-beta(1-40) peptide, monomeric …; assay: cell-based or functional assay
[3] = target: T2, human A-beta(1-40) peptide, monomeric …; assay: BAM ELISA
[4] = target: T3, aggregated A-beta(1-40) peptide (BAA) (human); assay: BAA ELISA
T3 construct: also called A-beta peptide aggregates

A-beta(1-16) peptide = target: T4, A-beta(1-16) peptide (human); assay: SPR on captured A-beta(1-16)
T4 construct: Bachem peptide captured on streptavidin chip; also called monomeric A-beta(1-16)
T4 peptide: DAEFRHDSGYEVHHQK-biotin
Procedure: as §1

[5] = target: T2, human A-beta(1-40) peptide, monomeric …; assay: TR-FRET competition, labelled ABII42D4
[6] = target: T2, human A-beta(1-40) peptide, monomeric …; assay: ABII002 TR-FRET competition assay
[7] = target: T2, human A-beta(1-40) peptide, monomeric …; assay: ABII050 TR-FRET competition assay
[8] = target: T2, human A-beta(1-40) peptide, monomeric …; assay: ABII002 TR-FRET competition assay; remark: listed apart in the source
[9] = target: T2, human A-beta(1-40) peptide, monomeric …; assay: TR-FRET competition
[10] = target: T3, aggregated A-beta(1-40) peptide (BAA); assay: BAA ELISA; remark: listed apart in the source
[11] = target: T2, human A-beta(1-40) peptide, monomeric …; assay: cell-based or functional assay; remark: listed apart in the source
[12] = target: T2, human A-beta(1-40) peptide, monomeric …; assay: BAM ELISA; remark: listed apart in the source
[13] = target: T2, human A-beta(1-40) peptide, monomeric …; assay: TR-FRET competition, mean IC50
[14] = target: T2, human A-beta(1-40) peptide, monomeric …; assay: TR-FRET competition; remark: listed apart in the source
[15] = target: T2, human A-beta(1-40) peptide, monomeric …; assay: 60A10 TR-FRET assay (labelled ABII60A10)
[16] = target: T2, human A-beta(1-40) peptide, monomeric …; assay: 42D4 TR-FRET assay (labelled ABII42D4)
[17] = target: T2, human A-beta(1-40) peptide, monomeric …; assay: TR-FRET competition; labelled competitor not given
[18] = target: T5, human A-beta peptide (residues 1-24) (human); assay: crystal structure
T5 construct: used for co-crystallisation; also called A-beta(1-24)
Procedure: The complex is concentrated by diafiltration to a concentration of 4 mg/ml. Crystallization trials are set up as sitting drop vapour diffusion experiments by mixing 200 nl of protein with 200 nl of reservoir solution against a reservoir volume of 100 μl. […] Data are collected at the beamline 6SA of the swiss light source at the Paul-Scherrer Institute in Villigen, Switzerland.

[19] = target: T2, human A-beta(1-40) peptide, monomeric …; assay: ELISA, format not stated
[20] = target: T2, human A-beta(1-40) peptide, monomeric …; assay: SPR (Biacore T100), periplasmic extracts on captured biotinylated A-beta(1-40), 1:1 model
Procedure: as §1

[21] = target: T2, human A-beta(1-40) peptide, monomeric …; assay: TR-FRET competition and SPR
[22] = target: T2, human A-beta(1-40) peptide, monomeric …; assay: TR-FRET competition, labelled ABII42D4; remark: listed apart in the source

T5 sequence (peptide, as listed by the source): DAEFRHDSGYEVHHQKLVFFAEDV

B4: ABII315-PEG20 (designed binder)
chain: EVQLLESGGGLVQPGGSLRLSCAASGRTFNNYNMGWFRQAPGKGREFVAAVSRSGVSTYYADSVKGRFTISRDNSKNTVYLQMNSLRPEDTAVYYCAAAYRGTAINVRRSYSSWGQGTLVTVSSGGGGCGGGSEVQLLESGGGLVQPGGSLRLSCVHSGPTFRTDTMGWFRQAPGKGREFVAAVTWNSGRINYADSVKGRFTISRDNSKNTAYLQMNSLRPEDTAVYYCAAHRFVVGGNRVEDWRYWGQGTLVTVSS
modifications: PEG20 on the Cys at position 5 of the 9GS linker
notes: 059-9GSC-035; purified as His6-tagged construct before PEGylation
IC50 [6]: 0.13 nM
IC50 [7]: 0.28 nM
fold improved IC50 against monovalent ABII035 [8]: 27 fold
fold improved potency against 3D6 IgG [8]: 14.6 fold

B7: ABII60A10 = ABII050 (VHH)
VHH: EVQLVESGGGLVQAGGSLRLSCAASGRTFNNYNMGWFRQAPGKEREFVAAVSRSGVSTYYADSVKGRFTISRDNAKNAVYLQMNSLKPEDTAIYYCGAAYRGTAINVRRSYDSWGQGTQVTVSS
IC50 [9]: 11.1 nM
IC50 [13]: 19 nM
EC50 [10]: 0.8 nM
fold improved IC50 against reference VHH 2D2 [14]: 36 fold
IC50 [15]: 30 nM
binding result (A-beta(12-28) peptide): binds
IC50 [7]: 6.3 nM
IC50 [1]: 11.1 nM
Aggregation inhibition (% inhibition at 26 µM) [11]: 80%
IC50 [16]: > 1000 nM
inhibition of peptide aggregation (ThT fluorescence), 28 µM VHH [2]: 80%
EC50 [3]: 4.9 nM
EC50 [12]: 4.9 nM
EC50 [4]: 0.8 nM
IC50 [17]: 19 nM

B8: ABII059 (VHH)
VHH: EVQLLESGGGLVQPGGSLRLSCAASGRTFNNYNMGWFRQAPGKGREFVAAVSRSGVSTYYADSVKGRFTISRDNSKNTVYLQMNSLRPEDTAVYYCAAAYRGTAINVRRSYSSWGQGTLVTVSS
notes: humanized variant of ABII050
IC50 [13]: 33 nM
binding result [18]: binds
IC50 [7]: 12.8 nM
Aggregation inhibition (% inhibition at 26 µM) [11]: 80%
fold difference of EC50 against the 2D2 and 2G6 VHHs [19]: > 50 fold
IC50 [17]: 33 nM

B11: ABII60G11 (VHH)
VHH: EVQLVESGGGSEQAGGSLRLSCATSGRAFSVYAWFRQAPGKERTFVAAVAWVGGSTFYSDSVKGRFTISRDNAKNTVFLHMNSLKPEDTAAYYCAARLYGGRWYNSPRVDDFEYWGQGTQVTVSS
koff [20]: 0.027 s⁻¹
binding result (A-beta(12-28) peptide): binds
IC50 [1]: 34.4 nM
EC50 [3]: 187 nM
EC50 [4]: 6 nM

B12: ABII111B5_E109Q (VHH)
VHH: EVQLVESGGGLVLAGGSLRLSCVHSGPTFRTDTMGWFRQAPGKEREFVAAVTWNSGRINYADSVKGRFTVSRDNTRNAAYLQMSGLKDEDTAVYYCTAHRFVVGGNMVQDWRYWGQGTQVTVSS
notes: targeted mutant
fold improvement of IC50 and KD over original ABII42D4 [21]: > 10 fold
IC50 [22]: 3.7 nM

B13: ABII111B5_M107E (VHH)
VHH: EVQLVESGGGLVLAGGSLRLSCVHSGPTFRTDTMGWFRQAPGKEREFVAAVTWNSGRINYADSVKGRFTVSRDNTRNAAYLQMSGLKDEDTAVYYCTAHRFVVGGNEVEDWRYWGQGTQVTVSS
notes: targeted mutant
fold improvement of IC50 and KD over original ABII42D4 [21]: > 10 fold
IC50 [22]: 4.3 nM

Other lines, results leading:

binding result (A-beta(12-28) peptide): binds
IC50 [1]: 85.6 nM
inhibition of peptide aggregation (ThT fluorescence), 28 µM VHH [2]: 77%
EC50 [3]: 10.8 nM
EC50 [4]: 2.1 nM
B1: ABII42B10 (VHH)
VHH: EVQLVESGGGLVQRGGSLRLSCAASGRTFSNLNMGWFRQAPGKEREFQAAISRSGGTTYYADSVKGRFTISRDNAKSTVFLQMNSLKPEDTAVYYCAAASPGGPINYGRAYDSWGQGTQVTVSS

binding result (A-beta(1-16) peptide): binds
EC50 [3]: 87 nM
EC50 [4]: 49.5 nM
IC50 [5]: > 1000 nM
B2: ABII42G10 (VHH)
VHH: EVQLVESGGGLVQAGGSLRLSCLFSGRTFSTNGVGWFRQVPGKEREFVSAINWSGSKTNYAEPVKGRFTISRDNAKNTAYLQMNSLKPEDTAVYYCAAYRTSISRYEYAYWGQGTQVTVSS

binding result (A-beta(1-16) peptide): binds
EC50 [3]: > 1000 nM
B3: ABII60H5 (VHH)
VHH: EVQLVESGGGLVQVGGSLRLSCAASGNIGSINAMGWYRQAPGKEREWVAIITNSGSVNYGPDSVKGRFTISGDNAKNRVYLQMDSLKPEDTAVYYCAAESWGRSPLKYLGQGTQVTVSS

binding result (A-beta(12-28) peptide): binds
IC50 [1]: 744 nM
inhibition of peptide aggregation (ThT fluorescence), 28 µM VHH [2]: 78%
EC50 [3]: 124 nM
EC50 [4]: 6.8 nM
B5: ABII14D4 (VHH)
VHH: EVQLVESGGGLVQAGGSLRLSCAASGRTFSTYNMAWFRHAPGKEREFVAAISRSGGSTYYVDSVKGRFTISRDNAKNTVYLQMNSLKPEDTAIYYCAAAPRGRSIVTTATYDYWGQGTQVTVSS

IC50 [9]: > 1000 nM
EC50 [10]: 7.2 nM
Aggregation inhibition (% inhibition at 26 µM) [11]: 29%
EC50 [3]: 98.6 nM
EC50 [12]: 98.6 nM
EC50 [4]: 7.2 nM
IC50 [5]: > 1000 nM
B6: reference VHH 2G6 (VHH)
VHH: QVKLEESGGGLVQPGGSLRLSCAASGFTFSNYWMYWVRQAPGKGLEWVSTISPRAANTYYADSVKGRFTISRDNAKNTLYLQMNSLEPDDTALYYCAKSLRYRDRPQSSDFLFWRQGTQVTVSS
notes: from WO2006/40153

binding result (A-beta(1-16) peptide): binds
EC50 [3]: 54.1 nM
EC50 [4]: 11.7 nM
IC50 [5]: > 1000 nM
B9: ABII5D2 (VHH)
VHH: EVQLVESGGGLVQAGGSLRLSCAASGRTFSSYAMGWVRQAPGKERELVATISQSGGLRSYADSVKGRFTISRDNAKNTVYLQMNSLTPGDTAVYYCAAQARATAWSPQRVDYWGQGTQVTVSS

binding result (A-beta(1-16) peptide): binds
EC50 [3]: > 1000 nM
B10: ABII60D2 (VHH)
VHH: EVQLVESGGGSVQAGGSLRLSCAYSGSIFSIKTMGWYRQAPGKQRELVGRITSGDSTNYADSVKGRFTISRDKAKTTVYLQMNNLKPEDTAVYYCAARRPWPRSDVWGQGTQVTVSS
